Measurements published in patent publication US20250388688A1 (ETHYREAL BIO, published 2025).

What was measured:
[1] = target: T1, soluble TSHR protein (ELISA coat) (human, UniProt P16473 22-260, limits assumed); experiment: ELISA, plate coated with soluble TSHR, antibody at 300 nM, anti-human IgG Fc-HRP;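 note: TSHR coated at 2 µg/ml, bound antibody revealed by goat anti-human IgG Fc HRP, color developed with TMB and stopped with H2SO4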
Description: (§1) Select TSHR antibody variants were tested for their ability to bind TSHR in an ELISA. Briefly, soluble TSHR protein was coated onto a plate at 2 μg/ml in phosphate buffered saline (PBS). The plate was washed with PBS and blocked with 4% skim milk in PBS.
(§2) Following wash steps with 1×PBS-Tween 0.05%, bound human IgG was detected with peroxidase conjugated goat anti-human IgG (Fc specific)-HRP at 1:5000 dilution and the ELISA was developed with TMB reagent followed by H2SO4.

[2] = target: T2, Soluble TSHR (22-260) protein (human, UniProt P16473 22-260); experiment: SPR (Biacore T200, 25 C), antibody captured on anti-human Fc, soluble TSHR (22-260) as analyte, 1:1 fit;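 note: antibodies captured at 0.1 ug/mL on a CM5 sensor chip bearing anti-human Fc, with HBS-EP+ running buffer at pH 7.4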
T2 construct: range 22-260
Description: Measurements were taken on a Biacore T200 at 25 C using a CM5 chip coated with anti-human Fc. Test antibodies were captured at 0.1 ug/mL in HBS-EP+ (10 mM HEPES pH7.4, 150 mM NaCl, 3 mM EDTA, 0.05% Tween 20) assay buffer. […] A 1:1 binding kinetics fit was used to calculate kinetic parameters.

[3] = target: T1, soluble TSHR protein (ELISA coat); experiment: ELISA, plate coated with soluble TSHR, antibody at 100 nM, anti-human IgG Fc-HRP;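 note: binding of antibody variants to soluble TSHR coated at 2 µg/ml, with colour developed using TMB substrate and stopped with H2SO4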
Description: as §1, §2

[4] = target: T1, soluble TSHR protein (ELISA coat); experiment: ELISA, plate coated with soluble TSHR, antibody at 33.3 nM, anti-human IgG Fc-HRP;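 note: binding of antibody variants to plate-bound soluble TSHR (coated at 2 µg/ml), with bound human IgG detected by HRP conjugate and colour developed using TMB substrate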
Description: as §1, §2

| Binder | ELISA (OD 450) at 300 nM [1] | Kd [2] | koff [2] | kon [2] | ELISA (OD 450) at 100 nM [3] | ELISA (OD 450) at 33.3 nM [4] |
| --- | --- | --- | --- | --- | --- | --- |
| TSHB-21 (antibody, V domains shown) VH: EVQLVQSGAEVKKPGQSLKISCKASGYSLTDNWIGWVRQKPGKGLEWMGIIYPGDSDTRYSPSFQGQVTISADKSINTAYLQWSSLKASDTAIYYCVGLDWNYNPLRYWGPGTLVTVSS VL: QSVLTQPPSVSAAPGQKVTISCSGSSSDIGSNYVSWYQQLPGTAPKLLIYDNNKRPSGIPDRFSGSKSGTSATLGITGLQTGDEADYYCATWDSRLGIAVFGGGTQLTVL | 0.552 OD 450 | 3.1 nM | 0.000357 s⁻¹ | 115000 M⁻¹ s⁻¹ | 0.473 OD 450 | 0.395 OD 450 |
| TSHB-10 (antibody, V domains shown) VH: EVQLVQSGAEVKKPGESLKISCKASGYSLTDNWIGWVRQKPGKGLEWMGIIYPGDSDTRYSPSFKGQVTISADKSISTAYLQWSSLKASDTAIYYCVGLDWNYNPLRYWGQGTLVTVSS VL: QSVLTQPPSVSAAPGQKVTISCSGSSSDIGSNYVSWYQQFPGTAPKLLIYDNNKRPSAIPDRFSGSKSGTSATLGITGLQTGDEADYYCGTWDSRLGIAVFGGGTQLTVL | 0.557 OD 450 | 2.94 nM | 0.000338 s⁻¹ | 115000 M⁻¹ s⁻¹ | 0.496 OD 450 | 0.44 OD 450 |
| TSHB-17 (antibody, V domains shown) VH: EVQLVQSGAEVKKPGQSLKISCKASGYSLTDNWIGWVRQKPGKGLEWMGIIYPGDSDTRYSPSFQGQVTISADKSINTAYLQWSSLKASDTAIYYCVGLDWNYNPLRYWGPGTLVTVSS VL: QSVLTQPPSVSAAPGQKVTISCSGSSSDIGSLYVSWYQQLPGTAPKLLIYDNNKRPSGIPDRFSGSKSGTSATLGITGLQTGDEADYYCGTWDSRLGIAVFGGGTQLTVL | 0.475 OD 450 | 8.25 nM | 0.000407 s⁻¹ | 49400 M⁻¹ s⁻¹ | 0.402 OD 450 | 0.357 OD 450 |
| TSHB-9 (antibody, V domains shown) VH: EVQLVQSGAEVKKPGESLKISCKASGYSLTDNWTGWVRQKPGKGLEWMGIIYPGDSDTRYSPSFQGQVTISADKSISTAYLQWSSLKASDTAIYYCVGLDWNYNPLRYWGQGTLVTVSS VL: QSVLTQPPSVSAAPGQKVTISCSGSSSDIGSNYVSWYQQFPGTAPKLLIYDNNKRPSAIPDRFSGSKSGTSATLGITGLQTGDEADYYCGTWDSRLGIAVFGGGTQLTVL | 0.478 OD 450 | 6.53 nM | 0.000676 s⁻¹ | 104000 M⁻¹ s⁻¹ | 0.452 OD 450 | 0.355 OD 450 |
| TSHB-11 (antibody, V domains shown) VH: EVQLVQSGAEVKKPGESLKISCKASGYSLTDNWIGWVRQKPGKGLEWMGIIYPGDSDTRYSPSFQGQVTISADKSISTAYLQWSSLKASDTAIYYCVGTDWNYNPLRYWGQGTLVTVSS VL: QSVLTQPPSVSAAPGQKVTISCSGSSSDIGSNYVSWYQQFPGTAPKLLIYDNNKRPSAIPDRFSGSKSGTSATLGITGLQTGDEADYYCGTWDSRLGIAVFGGGTQLTVL | 0.289 OD 450 | 53.3 nM | 0.000643 s⁻¹ | 12100 M⁻¹ s⁻¹ | 0.22 OD 450 | 0.159 OD 450 |
| TSHB-18 (antibody, V domains shown) VH: EVQLVQSGAEVKKPGQSLKISCKASGYSLTDNWIGWVRQKPGKGLEWMGIIYPGDSDTRYSPSFQGQVTISADKSINTAYLQWSSLKASDTAIYYCVGLDWNYNPLRYWGPGTLVTVSS VL: QSVLTQPPSVSAAPGQKVTISCSGSSTDIGSNYVSWYQQLPGTAPKLLIYDNNKRPSGIPDRFSGSKSGTSATLGITGLQTGDEADYYCGTWDSRLGIAVFGGGTQLTVL | 0.55 OD 450 | 2.94 nM | 0.000368 s⁻¹ | 125000 M⁻¹ s⁻¹ | 0.495 OD 450 | 0.42 OD 450 |
| TSHB-15 (antibody, V domains shown) VH: EVQLVQSGAEVKKPGQSLKISCKASGYSLTDNWIGWVRQKPGKGLEWMGIIYPGDSDTRYSPSFQGQVTISADKSINTAYLQWSSLKASDTAIYYCVGLDWNYNPLRYWGPGTLVTVSS VL: QSVLTQPPSVSAAPGQKVTISCSGSSSDIGSNYVSWYQQLPGTAPKLLIYDNNKRPSGIPDRFSGSKSGTSATLGITGLQTGDEADYYCGTWDSRFGIAVFGGGTQLTVL | 0.569 OD 450 | 3.08 nM | 0.000372 s⁻¹ | 121000 M⁻¹ s⁻¹ | 0.517 OD 450 | 0.443 OD 450 |
| TSHB-19 (antibody, V domains shown) VH: EVQLVQSGAEVKKPGQSLKISCKASGYSLTDNWIGWVRQKPGKGLEWMGIIYPGDSDTRYSPSFQGQVTISADKSINTAYLQWSSLKASDTAIYYCVGLDWNYNPLRYWGPGTLVTVSS VL: QSVLTQPPSVSAAPGQKVTISCSGSSSDIGSNWVSWYQQLPGTAPKLLIYDNNKRPSGIPDRFSGSKSGTSATLGITGLQTGDEADYYCGTWDSRLGIAVFGGGTQLTVL | 0.547 OD 450 | 3.12 nM | 0.000369 s⁻¹ | 118000 M⁻¹ s⁻¹ | 0.47 OD 450 | 0.405 OD 450 |

These reach a lower Kd [2]. Values come first.

| ELISA (OD 450) at 300 nM [1] | Kd [2] | koff [2] | kon [2] | ELISA (OD 450) at 100 nM [3] | ELISA (OD 450) at 33.3 nM [4] | Binder |
| --- | --- | --- | --- | --- | --- | --- |
| 0.586 OD 450 | 2.25 nM | 0.000344 s⁻¹ | 153000 M⁻¹ s⁻¹ | 0.551 OD 450 | 0.471 OD 450 | TSHB-8 (antibody, V domains shown) VH: EVQLVQSGAEVKKPGESLKISCKASGYSLTDNWIGWVRQKPGKGLEWMGIIYPGDSDTRYSPSFQGQVTISADKSISTAYLQWSSLKASDTAMYYCVGLDWNYNPLRYWGQGTLVTVSS VL: QSVLTQPPSVSAAPGQKVTISCSGSSSDIGSNYVSWYQQFPGTAPKLLIYDNNKRPSAIPDRFSGSKSGTSATLGITGLQTGDEADYYCGTWDSRLGIAVFGGGTQLTVL |
| 0.54 OD 450 | 2.7 nM | 0.000348 s⁻¹ | 129000 M⁻¹ s⁻¹ | 0.49 OD 450 | 0.425 OD 450 | TSHB-24 (antibody, V domains shown) VH: EVQLVQSGAEVKKPGESLKISCKASGYSLTDNWIGWVRQKPGKGLEWMGIIYPGDSDTRYSPSFQGQVTISADKSISTAYLQWSSLKASDTAIYYCVGLDWNYNPLRYWGQGTLVTVSS VL: QSVLTQPPSVSGAPGQRVTISCSGSSSDIGSNYVSWYQQLPGTAPKLLIYDNNKRPSGVPDRFSGSKSGTSASLAITGLQAEDEADYYCGTWDSRLGIAVFGGGTKLTVL |
| 0.572 OD 450 | 2.52 nM | 0.000352 s⁻¹ | 140000 M⁻¹ s⁻¹ | 0.522 OD 450 | 0.477 OD 450 | TSHB-14 (antibody, V domains shown) VH: EVQLVQSGAEVKKPGQSLKISCKASGYSLTDNWIGWVRQKPGKGLEWMGIIYPGDSDTRYSPSFQGQVTISADKSINTAYLQWSSLKASDTAIYYCVGLDWNYNPLRYWGPGTLVTVSS VL: QSVLTQPPSVSAAPGQKVTISCSGSSSDIGSNYVSWYQQLPGTAPKLLIYDNNKRPSGIPDRFSGSKSGTSATLGITGLQTGDEADYYCGTWDSRWGIAVFGGGTQLTVL |
| 0.566 OD 450 | 2.7 nM | 0.000385 s⁻¹ | 142000 M⁻¹ s⁻¹ | 0.487 OD 450 | 0.443 OD 450 | TSHB-16 (antibody, V domains shown) VH: EVQLVQSGAEVKKPGQSLKISCKASGYSLTDNWIGWVRQKPGKGLEWMGIIYPGDSDTRYSPSFQGQVTISADKSINTAYLQWSSLKASDTAIYYCVGLDWNYNPLRYWGPGTLVTVSS VL: QSVLTQPPSVSAAPGQKVTISCSGSSSDIGANYVSWYQQLPGTAPKLLIYDNNKRPSGIPDRFSGSKSGTSATLGITGLQTGDEADYYCGTWDSRLGIAVFGGGTQLTVL |
| 0.54 OD 450 | 2.77 nM | 0.000301 s⁻¹ | 109000 M⁻¹ s⁻¹ | 0.465 OD 450 | 0.411 OD 450 | TSHB-20 (antibody, V domains shown) VH: EVQLVQSGAEVKKPGQSLKISCKASGYSLTDNWIGWVRQKPGKGLEWMGIIYPGDSDTRYSPSFQGQVTISADKSINTAYLQWSSLKASDTAIYYCVGLDWNYNPLRYWGPGTLVTVSS VL: QSVLTQPPSVSAAPGQKVTISCSGSSSNIGSNYVSWYQQLPGTAPKLLIYDNNKRPSGIPDRFSGSKSGTSATLGITGLQTGDEADYYCGTWDSRLGIAVFGGGTQLTVL |
| 0.538 OD 450 | 2.45 nM | 0.000344 s⁻¹ | 141000 M⁻¹ s⁻¹ | 0.466 OD 450 | 0.512 OD 450 | TSHB-23 (antibody, V domains shown) VH: EVQLVQSGAEVKKPGESLKISCKASGYSLTDNWIGWVRQKPGKGLEWMGIIYPGDSDTRYSPSFQGQVTISADKSISTAYLQWSSLKASDTAIYYCVGLDWNYNPLRYWGQGTLVTVSS VL: QSVLTQPPSVSAAPGQKVTISCSGSSSDIGSNYVSWYQQLPGTAPKLLIYDNNKRPSGIPDRFSGSKSGTSATLGITGLQTGDEADYYCGTWDSRLGIAVFGGGTQLTVL |
